B1: UGT71C3: Arabidopsis recombinant glycosyltransferase, FIG. 2 (protein, listed as Arabidopsis thaliana)
chain: MKAEAEIIFVTYPSPGHLLVSIEFAKSLIKRDDRIHTITILYWALPLAPQAHLFAKSLVASQPRIRLLALPDVQNPPPLELFFKAPEAYILESTKKTVPLVRDALSTLVSSRKESGSVRVVGLVIDFFCVPMIEVANELNLPSYIFLTCNAGFLSMMKYLPERHRITTSELDLSSGNVEHPIPGYVCSVPTKVLPPGLFVRESYEAWVEIAEKFPGAKGILVNSVTCLEQNAFDYFARLDENYPPVYPVGPVLSLKDRPSPNLDASDRDRIMRWLEDQPESSIVYICFGSLGIIGKLQIEEIAEALELTGHRFLWSIRTNPTEKASPYDLLPEGFLDRTASKGLVCDWAPQVEVLAHKALGGFVSHCGWNSVLESLWFGVPIATWPMYAEQQLNAFSMVKELGLAVELRLDYVSAYGEIVKAEEIAGAIRSLMDGEDTPRKRVKEMAEAARNALMDGGSSFVAVKRFLDELIGGDV
B2: UGT76E2: Arabidopsis recombinant glycosyltransferase, FIG. 8 (protein, listed as Arabidopsis thaliana)
chain: MEEKQVKETRIVLVPVPAQGHVTPMMQLGKALHSKGFSITVVLTQSNRVSSSKDFSDFHFLTIPGSLTESDLQNLGPQKFVLKLNQICEASFKQCIGQLLHEQCNNDIACVVYDEYMYFSHAAVKEFQLPSVVFSTTSATAFVCRSVLSRVNAESFLIDMKDPETQDKVFPGLHPLRYKDLPTSVFGPIESTLKVYSETVNTRTASAVIINSASCLESSSLARLQQQLQVPVYPIGPLHITASAPSSLLEEDRSCVEWLNKQKSNSVIYISLGSLALMDTKDMLEMAWGLSNSNQPFLWVVRPGSIPGSEWTESLPEEFNRLVSERGYIVKWAPQMEVLRHPAVGGFWSHCGWNSTVESIGEGVPMICRPFTGDQKVNARYLERVWRIGVQLEGDLDKETVERAVEWLLVDEEGAEMRKRAIDLKEKIETSVRSGGSSCSSLDDFVNSM
B3: UGT73B4: Arabidopsis recombinant glycosyltransferase (protein, UniProt Q7Y232 1-484, looked up)
UDP-glycosyltransferase 73B4: MNREQIHILFFPFMAHGHMIPLLDMAKLFARRGAKSTLLTTPINAKILEKPIEAFKVQNPDLEIGIKILNFPCVELGLPEGCENRDFINSYQKSDSFDLFLKFLFSTKYMKQQLESFIETTKPSALVADMFFPWATESAEKIGVPRLVFHGTSSFALCCSYNMRIHKPHKKVASSSTPFVIPGLPGDIVITEDQANVTNEETPFGKFWKEVRESETSSFGVLVNSFYELESSYADFYRSFVAKKAWHIGPLSLSNRGIAEKAGRGKKANIDEQECLKWLDSKTPGSVVYLSFGSGTGLPNEQLLEIAFGLEGSGQNFIWVVSKNENQVGTGENEDWLPKGFEERNKGKGLIIRGWAPQVLILDHKAIGGFVTHCGWNSTLEGIAAGLPMVTWPMGAEQFYNEKLLTKVLRIGVNVGATELVKKGKLISRAQVEKAVREVIGGEKAEERRLRAKELGEMAKAAVEEGGSSYNDVNKFMEELNGRK
B4: UGT73B1: Arabidopsis recombinant glycosyltransferase (protein, UniProt Q8VZE9 1-488, looked up)
UDP-glycosyltransferase 73B1: MGTPVEVSKLHFLLFPFMAHGHMIPTLDMAKLFATKGAKSTILTTPLNAKLFFEKPIKSFNQDNPGLEDITIQILNFPCTELGLPDGCENTDFIFSTPDLNVGDLSQKFLLAMKYFEEPLEELLVTMRPDCLVGNMFFPWSTKVAEKFGVPRLVFHGTGYFSLCASHCIRLPKNVATSSEPFVIPDLPGDILITEEQVMETEEESVMGRFMKAIRDSERDSFGVLVNSFYELEQAYSDYFKSFVAKRAWHIGPLSLGNRKFEEKAERGKKASIDEHECLKWLDSKKCDSVIYMAFGTMSSFKNEQLIEIAAGLDMSGHDFVWVVNRKGSQVEKEDWLPEGFEEKTKGKGLIIRGWAPQVLILEHKAIGGFLTHCGWNSLLEGVAAGLPMVTWPVGAEQFYNEKLVTQVLKTGVSVGVKKMMQVVGDFISREKVEGAVREVMVGEERRKRAKELAEMAKNAVKEGGSSDLEVDRLMEELTLVKLQKEKV
B5: UGT76D1: Arabidopsis recombinant glycosyltransferase, FIG. 7 (protein, listed as Arabidopsis thaliana)
chain: MAEIRQRRVLMVPAPFQGHLPSMMNLASYLSSQGFSITIVRNEFNFKDISHNFPGIKFFTIKDGLSESDVKSLGLLEFVLELNSVCEPLLKEFLTNHDDVVDFIIYDEFVYFPRRVAEDMNLPKMVFSPSSAATSISRCVLMENQSNGLLPPQDARSQLEETVPEFHPFRFKDLPFTAYGSMERLMILYENVSNRASSSGIIHNSSDCLENSFITTAQEKWGVPVYPVGPLHMTNSAMSCPSLFEEERNCLEWLEKQETSSVIYISMGSLAMTQDIEAVEMAMGFVQSNQPFLWVIRPGSINGQESLDFLPEQFNQTVTDGRGFVVKWAPQKEVLRHRAVGGFWNHGGWNSCLESISSGVPMICRPYSGDQRVNTRLMSHVWQTAYEIEGELERGAVEMAVRRLIVDQEGQEMRMRATILKEEVEASVTTEGSSHNSLNNLVHAIMMQIDEQ
B6: UGT71C4: Arabidopsis recombinant glycosyltransferase, FIG. 3 (protein, listed as Arabidopsis thaliana)
chain: MVKETELIFIPVPSTGHILVHIEFAKRLINLDHRIHTITILNLSSPSSPHASVFARSLIASQPKIRLHDLPPIQDPPPFDLYQRAPEAYIVKLIKKNTPLIKDAVSSIVASRRGGSDSVQVAGLVLDLFCNSLVKDVGNELNLPSYIYLTCNARYLGMMKYIPDRHRKIASEFDLSSGDEELPVPGFINAIPTKFMPPGLFNKEAYEAYVELAPRFADAKGILVNSFTELEPHPFDYFSHLEKFPPVYPVGPILSLKDRASPNEEAVDRDQIVGWLDDQPESSVVFLCFGSRGSVDEPQVKEIARALELVGCRFLWSIRTSGDVETNPNDVLPEGFMGRVAGRGLVCGWAPQVEVLAHKAIGGFVSHCGWNSTLESLWFGVPVATWPMYAEQQLNAFTLVKELGLAVDLRMDYVSSRGGLVTCDEIARAVRSLMDGGDEKRKKVKEMADAARKALMDGGSSSLATARFIAELFEDGSSC

The first series is described as follows: UGT enzyme reaction with quercetin (recombinant UGTs, HPLC). The class given is biochemical, Arabidopsis. Conditions: quercetin glucosylated at 3-OH; 0.5 mM quercetin, 5 mM UDP-glucose, 30° C. On the procedure: The assay mix (200 μl) contained 2 μg of recombinant protein, 100 mM Tris-HCl, pH 7.0, 5 mM UDP-glucose 1.4 mM 2-mercaptoethanol, and 0.5 mM of quercetin. The reaction was carried out at 30° C. for 1 h, and was quick-frozen and stored at −20° C. prior to the reverse-phase HPLC analysis
Reverse-phase HPLC (SpectraSYSTEM HPLC systems and UV6000LP Photodiode Array Detector, ThermoQuest) analysis was carried using a Columbus 5μ C18 column (250×4.60 mm, PHENOMENEX). Quercetin glucosides were separated from the aglycone by a linear gradient of 10-75% acetonitrile in H2O (all solution contained 0.1% trifluoroacetic acid) at 1 ml/mm over 20 mm and monitored at 370 nm. Cytokinin glucosides were separated from their aglycone by a liner gradient of 10-100% methanol in H2O (for N6-isopentenyladenine (iP), N6-benzyladenine and kinetin) or 10-60% methanol in H2O (for trans-zeatin and dihydrozeatin) at 1 ml/min over 20 mm. All solution contained 0.25% acetic acid and 0.04% triethylamine, trifluoroacetic acid. The separation was monitored at 206 nm and 252 nm. The identity of the products was confirmed by comparison with authentic gluco sides.
The activity of Arabidopsis recombinant UGTs towards quercetin was determined using the platform developed previously^15.
Consider B1, for which the “Specific activity (nkat/mg protein) 3-O-glc” value stood at 0.11 nkat/mg protein.
Take B2: the “Specific activity (nkat/mg protein) 3-O-glc” value is listed as 0.17 nkat/mg protein.
On to B3, for which the “Specific activity (nkat/mg protein) 3-O-glc” value was found to be 12.14 nkat/mg protein.
With B4, the “Specific activity (nkat/mg protein) 3-O-glc” value was 0.32 nkat/mg protein.
B5: the “Specific activity (nkat/mg protein) 3-O-glc” value was “— (Activity lower than 0.02 nkat/mg protein has been considered as trace activity and is not shown in the Table.)”.
On to B6, for which the “Specific activity (nkat/mg protein) 3-O-glc” value turned out to be 1.33 nkat/mg protein.

The same series, now with this note: quercetin glucosylated at 3′-OH; 0.5 mM quercetin, 5 mM UDP-glucose, 30° C.
On to B1, for which the “Specific activity (nkat/mg protein) 3′-O-glc” value is “— (Activity lower than 0.02 nkat/mg protein has been considered as trace activity and is not shown in the Table.)”.
The same measure, in the same setting: the value for B2 was “— (Activity lower than 0.02 nkat/mg protein has been considered as trace activity and is not shown in the Table.)”; that for B3 was “— (Activity lower than 0.02 nkat/mg protein has been considered as trace activity and is not shown in the Table.)”; that for B4 was “— (Activity lower than 0.02 nkat/mg protein has been considered as trace activity and is not shown in the Table.)”.
In the case of B5, the “Specific activity (nkat/mg protein) 3′-O-glc” value is “— (Activity lower than 0.02 nkat/mg protein has been considered as trace activity and is not shown in the Table.)”.
On the same count and under the same terms, the value for B6 was “— (Activity lower than 0.02 nkat/mg protein has been considered as trace activity and is not shown in the Table.)”.

Still in this series, the particulars now being: quercetin glucosylated at 4′-OH; 0.5 mM quercetin, 5 mM UDP-glucose, 30° C.
As for B1, the “Specific activity (nkat/mg protein) 4′-O-glc” value is “— (Activity lower than 0.02 nkat/mg protein has been considered as trace activity and is not shown in the Table.)”.
The same measure, in the same setting: the value for B2 was “— (Activity lower than 0.02 nkat/mg protein has been considered as trace activity and is not shown in the Table.)”.
With B3, the “Specific activity (nkat/mg protein) 4′-O-glc” value was “— (Activity lower than 0.02 nkat/mg protein has been considered as trace activity and is not shown in the Table.)”.
In the case of B4, the “Specific activity (nkat/mg protein) 4′-O-glc” value was “— (Activity lower than 0.02 nkat/mg protein has been considered as trace activity and is not shown in the Table.)”.
Regarding B5, the “Specific activity (nkat/mg protein) 4′-O-glc” value is “— (Activity lower than 0.02 nkat/mg protein has been considered as trace activity and is not shown in the Table.)”.
For the molecule B6, the “Specific activity (nkat/mg protein) 4′-O-glc” value is “— (Activity lower than 0.02 nkat/mg protein has been considered as trace activity and is not shown in the Table.)”.

Staying with this series, now noted: quercetin glucosylated at 7-OH; 0.5 mM quercetin, 5 mM UDP-glucose, 30° C.
For B1, the “Specific activity (nkat/mg protein) 7-O-glc” value is “— (Activity lower than 0.02 nkat/mg protein has been considered as trace activity and is not shown in the Table.)”.
B2: the “Specific activity (nkat/mg protein) 7-O-glc” value stood at 0.21 nkat/mg protein.
On to B3, for which the “Specific activity (nkat/mg protein) 7-O-glc” value turned out to be 0.18 nkat/mg protein.
Still for that read-out and setting: the value for B4 was 0.14 nkat/mg protein; that for B5 was 0.24 nkat/mg protein.
Still for that read-out and setting: the same measure for B6: 0.63 nkat/mg protein.

These data come from patent US7662583B2, “Bioreactor containing cells expressing glycosyltransferase nucleic acids isolatable from Arabidopsis” (The University of York, priority 2003, dated 2010).
